Source: article PMC8998336 (2022)

How the values were obtained:
[1] = target: T1, human cationic trypsin (TRY1) p.S200A (human, UniProt P07477 24-247, p.S200A); experiment: SPR
[2] = target: human cationic trypsin (TRY1) WT (human, UniProt P07477 24-247); experiment: trypsin activity assay
[3] = target: T1, human cationic trypsin (TRY1) p.S200A; experiment: SPR; remark: listed apart in the source

| Binder | koff [1] [s⁻¹] | Ki [2] [nM] | Kd [3] [nM] |
| --- | --- | --- | --- |
| serine protease inhibitor Kazal-type 1 (SPINK1) p.N34S (natural protein) DSLGREAKCYSELNGCTKIYDPVCGTDGNTYPNECVLCFENRKRQTSILIQKSGPC | 0.0002 | 0.045 | 0.863 |
| serine protease inhibitor Kazal-type 1 (SPINK1) WT (natural protein) DSLGREAKCYNELNGCTKIYDPVCGTDGNTYPNECVLCFENRKRQTSILIQKSGPC | 0.0002 | 0.028 | 0.8 |
